This is an account of results in patent US10072252B2 (priority 2013, dated 2018).

Data set [1] deals with CCCCCCCCCC(=O)CC(=O)N[C@H]1CCOC1=O. The data set can be described thus: purified protein, by the assay type. The conditions noted are these: pH 8.3; 25.0 °C.
For data set [2], the system named is CCCCCCCC(=O)CC(=O)N[C@H]1CCOC1=O. The data set can be described thus: purified protein, by the assay type. The note with it: pH 8.3; 25.0 °C.
The test system of another data set is CCCCCCC1CCCC(=O)O1. The data set can be described thus: purified protein, by the assay type. The conditions noted are these: pH 8.3; 25.0 °C.
Data set [3] addresses Sulfolobus solfataricus SsoPox variant W263F (of SEQ ID NO: 3) (Saccharolobus solfataricus, UniProt Q97VT7, W263F).
The target of data set [4] is T1, Sulfolobus solfataricus SsoPox, wild type (wt), SEQ ID NO: 3 (Saccharolobus solfataricus, UniProt Q97VT7).
Data set [5] deals with T2, Sulfolobus solfataricus SsoPox variant W263L, SEQ ID NO: 11 (Saccharolobus solfataricus, UniProt Q97VT7, W263L).
T2 construct: made in house; host or cells: E. coli BL21(DE3)-pGro7/GroEL
In kind it is biochemical.

For data set [6], the target named is T3, Sulfolobus solfataricus SsoPox variant W263M, SEQ ID NO: 9 (Saccharolobus solfataricus, UniProt Q97VT7, W263M).
T3 construct: made in house; host or cells: E. coli BL21(DE3)-pGro7/GroEL
In kind it is biochemical.

Data set [7] deals with T4, Sulfolobus solfataricus SsoPox variant αsA1 (C258L/I261F/W263A), SEQ ID NO: 21 (Saccharolobus solfataricus, UniProt Q97VT7, C258L/I261F/W263A).
T4 construct: made in house; host or cells: E. coli BL21(DE3)-pGro7/GroEL
T4 sequence (Q97VT7 1-314 C258L/I261F/W263A): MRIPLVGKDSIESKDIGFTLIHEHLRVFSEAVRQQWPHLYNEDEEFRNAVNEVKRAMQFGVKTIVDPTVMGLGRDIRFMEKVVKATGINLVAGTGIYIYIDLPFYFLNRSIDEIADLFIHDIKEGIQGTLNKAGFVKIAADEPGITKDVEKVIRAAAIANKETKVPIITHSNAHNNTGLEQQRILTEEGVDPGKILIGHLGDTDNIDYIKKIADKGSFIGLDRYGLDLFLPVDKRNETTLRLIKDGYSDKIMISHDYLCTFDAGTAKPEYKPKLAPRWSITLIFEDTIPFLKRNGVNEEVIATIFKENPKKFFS
In kind it is biochemical. The note with it: for Catalytic activity: pH 8.

For data set [8], the target named is T1, Sulfolobus solfataricus SsoPox, wild type (wt), SEQ ID NO: 3. Also noted: made in house; host or cells: E. coli BL21(DE3)-pGro7/GroEL. The conditions noted are these: pH 8; cited from earlier work.
For data set [9], the target named is Sulfolobus solfataricus SsoPox variant W263T, SEQ ID NO: 19 (Saccharolobus solfataricus, UniProt Q97VT7, W263T).
Data set [10] concerns the target Sulfolobus solfataricus SsoPox variant W263I, SEQ ID NO: 15 (Saccharolobus solfataricus, UniProt Q97VT7, W263I).
The target in data set [11] is Sulfolobus solfataricus SsoPox variant W263V, SEQ ID NO: 17 (Saccharolobus solfataricus, UniProt Q97VT7, W263V).
Data set [12] has as its target T2, Sulfolobus solfataricus SsoPox variant W263L, SEQ ID NO: 11. In kind it is biochemical. This is another data set of the same source.
The format of data set [13] is physicochemical. The conditions noted are these: pH 8.

Several values for one entry are separate records, joined by “and”; a condition that tells them apart may be missing. Equal values may be shown once.

The term Km denotes the substrate concentration at which the rate is half of its maximum. Consider “Sulfolobus solfataricus SsoPox variant W263A, SEQ ID NO: 13 (Saccharolobus solfataricus P2; W263A)”, for which the Km in data set [1] came to 1640 ± 170 µM.
Usually kcat stands for the number of substrate molecules converted per active site and unit of time at saturation. Usually kcat/Km stands for the turnover number divided by the Michaelis constant. As to “Sulfolobus solfataricus SsoPox variant W263F (of SEQ ID NO: 3) (Saccharolobus solfataricus P2; W263F)”, in data set [2], the Km was 288 ± 56 µM, the kcat turned out to be 3.96 ± 0.18 s⁻¹ and the kcat/Km turned out to be 13800 ± 2800 M⁻¹ s⁻¹. In addition, in [1], the Km came to 146 ± 33 µM, the kcat amounted to 0.66 ± 0.03 s⁻¹ and the kcat/Km came out at 4520 ± 1040 M⁻¹ s⁻¹. In the data set with CCCCCCC1CCCC(=O)O1, the Km was 135.2 ± 52.8 µM, the kcat was 66.5 ± 3.2 s⁻¹ and the kcat/Km was 492000 ± 193000 M⁻¹ s⁻¹.
Take “Sulfolobus solfataricus SsoPox variant W263V, SEQ ID NO: 17 (Saccharolobus solfataricus P2; W263V)”: in [2], the Km turned out to be 1346 ± 298 µM, the kcat stood at 0.19 ± 0.009 s⁻¹ and the kcat/Km was found to be 141 ± 32 M⁻¹ s⁻¹. Also, in [1], the Km was determined as 24.7 ± 5.2 µM, the kcat amounted to 4.82 ± 0.11 s⁻¹ and the kcat/Km is 195000 ± 44000 M⁻¹ s⁻¹.
Regarding `CCCCCCCC(=O)CC(=O)N[C@H]1CCOC1=O` [3-oxo-C10 AHL], the Enhancement/wt is recorded as 4.4(±1.0) × 10^−1 in data set [3], 1 in data set [4], 0 in data set [5] and 0 in [6]. Also, in data set [4], the kcat/KM is 3.16(±0.40)×10^4 M^−1s^−1. In addition, in data set [4], the “times better substrate / higher catalytic efficiency” value was determined as 10 times.
In the case of “Sulfolobus solfataricus SsoPox variant W263I, SEQ ID NO: 15 (Saccharolobus solfataricus P2; W263I)”, in [2], the Km turned out to be 1605 ± 443 µM, the kcat was determined as 0.6 ± 0.09 s⁻¹ and the catalytic efficiency (kcat/Km) came out at 374 ± 117 M⁻¹ s⁻¹. Also, in data set [1], the Km was 17.8 ± 4.87 µM and 17.8 ± 4.9 µM; the kcat is 2.89 s⁻¹ and 2.89 ± 0.08 s⁻¹.
For `CCOC(=O)CC(SP(=S)(OC)OC)C(=O)OCC` (stereo not shown) [Malathion, malathion], the figures for the Catalytic activity in data set [7] and in data set [8] were 3.2 ± 0.7 M⁻¹ s⁻¹ and 5.56 ± 1.26 M⁻¹ s⁻¹, respectively.
For “Sulfolobus solfataricus SsoPox, wild type (wt), SEQ ID NO: 3 (Saccharolobus solfataricus P2)”, in data set [2], the Km was 143 ± 15 µM, the kcat came to 4.52 ± 0.1 s⁻¹ and the kcat/Km worked out at 31600 ± 4000 M⁻¹ s⁻¹. In addition, the Km in [1] was 335 ± 10.4 µM and 456 ± 128 µM. In the data set with CCCCCCC1CCCC(=O)O1, the Km is 94 ± 18 µM, the kcat turned out to be 7.38 ± 0.28 s⁻¹ and the kcat/Km turned out to be 78600 ± 15300 M⁻¹ s⁻¹.
Take “Sulfolobus solfataricus SsoPox variant W263T, SEQ ID NO: 19 (Saccharolobus solfataricus P2; W263T)”: in data set [2], the Km is 1000 ± 343 µM, the kcat was found to be 0.107 ± 0.016 s⁻¹ and the kcat/Km came to 106 ± 40 M⁻¹ s⁻¹. Moreover, in data set [1], the Km is 137 ± 19 µM, the kcat turned out to be 10.4 ± 0.35 s⁻¹ and the kcat/Km turned out to be 75600 ± 10800 M⁻¹ s⁻¹.
With `CCCCCCCC1CCC(=O)O1` (stereo not shown) [Undecanoic-γ-lactone, undecanoic-γ-lactone], the Enhancement/wt turned out to be 5.3 ± 1.8 in data set [3]; 1 in [4]; 147.9 ± 53.5 in data set [9]; 2.3 ± 0.5 in data set [10]; 4.4 ± 1.1 in data set [5]; 1.4 ± 0.4 in data set [11]. Moreover, the Enhancement/wt in data set [6] is 5.4 ± 1.3. For the same molecule, the kcat/KM in data set [4] is on record as 2.36 (±0.38)×10^3 M^−1s^−1.
Regarding `CCCCCCC1CCCC(=O)O1` (stereo not shown) [Undecanoic-δ-lactone, undecanoic-δ-lactone], the Enhancement/wt in [3] is listed as 6.3 ± 2.7; in data set [4] it was 1; in data set [9], 9.1 ± 3.5; in [10], over 73.8 ± 17.2; in [5], 3.3 ± 1.2; in data set [11], 10.1 ± 3.6. Further, in data set [6], the Enhancement/wt came out at 5.6 ± 2.0. Besides, the figures for the kcat/KM in [4] and in [10] (pH 8.3) were 6.72(±2.54)×10^4 M^−1s^−1 and >5.80(±0.74) × 10^6 M^−1s^−1, respectively. Also, the “times better substrate / higher catalytic efficiency” value in data set [4] was 10 times. Besides, the catalytic constant (kcat) result in data set [10] (pH 8.3) is on record as “(5.80 ± 0.74) × 10^1 s^−1”.
For the molecule `CCOP(=S)(OCC)Oc1ccc([N+](=O)[O-])cc1` [Ethyl-Parathion, ethyl-parathion], the “Catalytic activity (very low hydrolysis)” value in [7] was “VLH”.
With `COP(=O)(OC)Oc1ccc([N+](=O)[O-])cc1` [Methyl-paraoxon, methyl-paraoxon], the Catalytic activity in [7] is on record as 2.29(±1.09) · 10^4 M^−1s^−1. For the same molecule, in [12], the “catalytic efficiency improvement induced by SDS” value amounted to 5.3 times; the kcat/KM was 3.16(±0.10) × 10^4 M^−1s^−1 and 1.69(±0.04) × 10^5 M^−1s^−1. For the same molecule, in [8], the Catalytic activity is on record as 1.27(±0.7) · 10^3 M^−1s^−1.

B1: SsoPox wt: wild-type hyperthermophilic PTE of Sulfolobus solfataricus, sequence SEQ ID NO: 3 (protein, listed as Sulfolobus solfataricus)
chain: MRIPLVGKDSIESKDIGFTLIHEHLRVFSEAVRQQWPHLYNEDEEFRNAVNEVKRAMQFGVKTIVDPTVMGLGRDIRFMEKVVKATGINLVAGTGIYIYIDLPFYFLNRSIDEIADLFIHDIKEGIQGTLNKAGFVKIAADEPGITKDVEKVIRAAAIANKETKVPIITHSNAHNNTGLEQQRILTEEGVDPGKILIGHLGDTDNIDYIKKIADKGSFIGLDRYGLDLFLPVDKRNETTLRLIKDGYSDKIMISHDYCCTIDWGTAKPEYKPKLAPRWSITLIFEDTIPFLKRNGVNEEVIATIFKENPKKFFS
The molecule B1 returned a melting temperature in data set [13] of 104 °C.

B2: SsoPox W263F: SsoPox (SEQ ID NO: 3) with W263F variation (protein, listed as Sulfolobus solfataricus)
chain: MRIPLVGKDSIESKDIGFTLIHEHLRVFSEAVRQQWPHLYNEDEEFRNAVNEVKRAMQFGVKTIVDPTVMGLGRDIRFMEKVVKATGINLVAGTGIYIYIDLPFYFLNRSIDEIADLFIHDIKEGIQGTLNKAGFVKIAADEPGITKDVEKVIRAAAIANKETKVPIITHSNAHNNTGLEQQRILTEEGVDPGKILIGHLGDTDNIDYIKKIADKGSFIGLDRYGLDLFLPVDKRNETTLRLIKDGYSDKIMISHDYCCTIDFGTAKPEYKPKLAPRWSITLIFEDTIPFLKRNGVNEEVIATIFKENPKKFFS
In the case of B2, in [13], the melting temperature came to 91.8±1.7 °C.

B3: SsoPox W263L: SEQ ID NO: 3 with substitution of tryptophan W in position 263 by leucine L (protein, listed as Sulfolobus solfataricus)
chain: MRIPLVGKDSIESKDIGFTLIHEHLRVFSEAVRQQWPHLYNEDEEFRNAVNEVKRAMQFGVKTIVDPTVMGLGRDIRFMEKVVKATGINLVAGTGIYIYIDLPFYFLNRSIDEIADLFIHDIKEGIQGTLNKAGFVKIAADEPGITKDVEKVIRAAAIANKETKVPIITHSNAHNNTGLEQQRILTEEGVDPGKILIGHLGDTDNIDYIKKIADKGSFIGLDRYGLDLFLPVDKRNETTLRLIKDGYSDKIMISHDYCCTIDLGTAKPEYKPKLAPRWSITLIFEDTIPFLKRNGVNEEVIATIFKENPKKFFS
Molecule B3 had a melting temperature in data set [13] of 92.0±2.1 °C.

B4: SsoPox W263M: SEQ ID NO: 3 with substitution of tryptophan W in position 263 by methionine M (protein, listed as Sulfolobus solfataricus)
chain: MRIPLVGKDSIESKDIGFTLIHEHLRVFSEAVRQQWPHLYNEDEEFRNAVNEVKRAMQFGVKTIVDPTVMGLGRDIRFMEKVVKATGINLVAGTGIYIYIDLPFYFLNRSIDEIADLFIHDIKEGIQGTLNKAGFVKIAADEPGITKDVEKVIRAAAIANKETKVPIITHSNAHNNTGLEQQRILTEEGVDPGKILIGHLGDTDNIDYIKKIADKGSFIGLDRYGLDLFLPVDKRNETTLRLIKDGYSDKIMISHDYCCTIDMGTAKPEYKPKLAPRWSITLIFEDTIPFLKRNGVNEEVIATIFKENPKKFFS
In turn, B4 yielded a melting temperature in [13] of 85.3±0.9 °C.
